System: RPE-J cells
Assay: In vitro pulse-chase phagocytosis assay with opsin immunoblotting
Type: cell-based, rat
Conditions: CIB2 overexpression vs control, chase 6 h
From the text: FIG. 12. CIB2 mutant mice have less autophagy/lysosomal proteins, and overexpression of CIB2. in vitro, is sufficient to boost levels of autophagy/lysosomal proteins and clearance of opsin. a. […] Pro-cathepsin D levels were quantified from non-saturated exposures. c. Representative immunoblots for indicated autophagy/lysosomal proteins from RPE-J cells transiently transfected with GFP or CIB2-IRES-GFP. Endogenous CIB2 is observable in long exposure immunoblot, while transiently overexpressed CIB2 is readily observable in short exposure immunoblot. d. Quantification for immunoblots shown in (c). n=5 (LAMP-1) or 4 (ATG5-ATG12) independent transfection experiments. e, Schematic of the pulse-chase phagocytosis assay (left panel)—also see Examples below. […]
Complementary to the findings of Cib2 mutant mice, over-expressing CIB2 in RPE-J cells increased LAMP-1 and ATG5-ATG12 complex proteins levels (FIG. 12c-d). […] To test this idea, we assessed LC3-II flux. LC3-I is a cytosolic protein which when lipidated with a phosphatidylethanolamine adduct (LC3-II form) localizes to the growing auto/phagosome membrane, and thus can be used as a reliable readout for the dynamic autophagic process (Valapala et al., Autophagy 10, 480-496 (2014); Kim et al., Noncanonical Autophagy Promotes the Visual Cycle. Cell 154, 365-376 (2013); Klionsky et al., Autophagy 12, 1-222 (2016)). […]

B1: CIB2: calcium and integrin binding protein 2, over-expressed in cells from plasmid constructs; SEQ ID NO:1 (human), SEQ ID NO:2 (mouse) (protein)
chain: MGNKQTIFTEEQLDNYQDCTFFNKKDILKLHARFYELAPNLVPMDYRKSPIVHVPMSLIIQMPELRENPFKERIVEAFSEDGEGNLTFNDFVDMFSVLCESAPRELKANYAFKIYDFNTDNFICKEDLEMTLARLTKSELEEDEVVLVCDKVIEEADLDGDGKLGFADFEDMIAKAPDFLSTFHIRI
modifications: left off: large carriers
- Opsin 6 hr later (digestion phase): less opsin

— US12661385B2, “Modulation of mTORCI activity and autophagy via CIB2-RHEB interaction” (University of Maryland, Baltimore, priority 2018, dated 2026)
